Experiments:
[1] = biological target: ORFV125 lacking the 30 C-terminal residues (orf virus); experiment: SEC
[2] = biological target: ORFV125 lacking the 30 C-terminal residues (orf virus); experiment: ITC

## ORFV125 lacking the 30 C-terminal residues (domain or fragment)
[1]
  stoichiometry N: 2

B1: Bak BH3 motif peptide (human, 67-92) (peptide)
peptide: PSSTMGQVGRQLAIIGDDINRRYDSE
[2]
  Kd: 5800 nM

B2: Puma BH3 motif peptide (human, 130-155) (peptide)
peptide: EEQWAREIGAQLRRMADDLNAQYERR
[2]
  Kd: 1750 nM

B3: Bax BH3 motif peptide (human, 50-77, 28-mer) (peptide)
peptide: VPQDASTKKLSECLKRIGDELDSNMELQ
[2]
  Kd: 682 nM

From PMC7719400
